In US20240092867A1 (UNIVERSITY OF CHICAGO, published 2024) one finds Kd, koff and kon data, which are given here for one molecule.

Test [1] has as its target T1, human plasma-derived vWF (human, UniProt P04275 764-2813).
T1 construct: mature; also called plasma-derived purified vWF; von Willebrand factor
Put plainly: SPR, vWF immobilised, GF flowed, 1:1 Langmuir fit. As for the experimental part: A450 nm represents absorbance at 450 nm. Signals from VEGF-A121 served as a baseline, and bovine serum albumin (BSA) served as a negative control (n=4, mean±SD). […] Experimental curves were fitted with (C) 1:1 Langmuir fit model and (D) heterogeneous ligand-parallel reactions binding.
SPR assays were performed as described previously2. In brief, measurements were made with a Biacore X100 SPR system or Biacore 3000 SPR system (GE Healthcare). […] Recombinant human VEGF-A165, VEGF-A121, or PDGF-BB was flowed at increasing concentrations in the running buffer at 30 μL/min. The sensor chip was regenerated with glycine at pH 2 for every cycle.
(In SPR one partner is held on a chip, and binding of the other changes the refractive index at the surface.)

In test [2] the target is T2, recombinant laminin α3 2928-3150 protein (linker domain and LG4 domain) (human, UniProt Q16787 2928-3150).
T2 construct: range 2928-3150; Made in HEK-293F cells; also called laminin alpha 3 LG domain recombinant protein
T2 sequence: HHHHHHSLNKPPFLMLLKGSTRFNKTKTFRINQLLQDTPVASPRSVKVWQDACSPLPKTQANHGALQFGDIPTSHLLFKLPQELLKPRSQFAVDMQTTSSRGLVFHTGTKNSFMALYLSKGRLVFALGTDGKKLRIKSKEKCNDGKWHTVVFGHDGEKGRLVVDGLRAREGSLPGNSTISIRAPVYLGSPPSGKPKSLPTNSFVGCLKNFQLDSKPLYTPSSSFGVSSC
The test is described as follows: SPR, α3 2928-3150 immobilised, GF flowed, Langmuir fit. As for the experimental part:
Affinity of GFs against recombinant laminin LG domains. ELISA plates were coated with 1 μg/mL (A) α3₂₉₂₈₋₃₁₅₀, (B) α4₈₂₆₋₁₈₁₆, or (C) α5₃₀₂₆₋₃₄₈₂ and further incubated with 1 μg/mL of VEGF-A165, VEGF-A121, PlGF-2, PlGF-1, PDGF-BB, or FGF-2 solution. Bound GFs were detected using a specific antibody for each GF (n=4, mean±SEM). Statistical analyses were done using the Mann-Whitney U test by comparing the signals obtained from the laminin domain- and the BSA-coated wells. *p<0.05, **p<0.01. […] A SPR chip was functionalized with the laminin α3₂₉₂₈₋₃₁₅₀ recombinant protein (˜1000 RU), and each GF was flowed over the chip at indicated concentrations. Curves represent the specific responses (in RU) to laminin. Experimental curves were fitted with Langmuir binding kinetics.
(§1) Because the GFs that bound to laminins have also been previously reported to bind to other ECM glycoproteins through HBDs, it was hypothesized that HBDs of laminins might be responsible for the interactions between GFs and laminin. To address this hypothesis, ELISA assays were repeated for VEGF-A165, PlGF-2 or FGF-2 in the presence of heparin added in excess (10 μM). […] To further confirm this, the inventors tested direct GF binding to the LG domains from human laminin α3, α4 and α5, within which HBDs of laminin were localized.
SPR analysis was performed as described previously². […]

Test [3] addresses T3, laminin-521 (human, UniProt O15230 36-3695; P55268 33-1798; P11047 34-1609).
T3 construct: Full-length recombinant human laminin isoform (BioLamina); chains read from the isoform name
The test is described as follows: SPR; laminin-521 immobilised on the chip (~2000 RU), VEGF-A165 flowed at 10-100 nM; Langmuir fit. As for the experimental part:
A450 nm represents absorbance at 450 nm. BSA-coated wells served as negative controls (n=4, mean±SEM). Signals greater than 0.1 (grey box) are considered to be significant. […] Experimental curves were fitted with Langmuir binding kinetics.
The obtained binding curves were fitted with Langmuir binding kinetics to calculate specific dissociation constants (KD) (FIG. 1B).
SPR analysis was performed as described previously². In brief, measurements were made with a Biacore 3000 SPR system (GE Healthcare). […] VEGF-A165, PDGF-BB, or PlGF-2 was flowed at increasing concentrations in the running buffer at 20 μL/min. The sensor chip was regenerated with 50 mM NaOH for every cycle. Specific bindings of GFs to laminin were calculated by comparison to a non-functionalized channel used as a reference. Experimental results were fitted with Langmuir binding kinetics using BIAevaluation software (GE Healthcare).

The target in test [4] is T2, recombinant laminin α3 2928-3150 …. The test is described as follows: SPR; α3 2928-3150 recombinant protein immobilised (~1000 RU), VEGF-A165 flowed at 0.325-10.4 nM; Langmuir fit [panel D].
Text: Statistical analyses were done using the Mann-Whitney U test by comparing the signals obtained from the laminin domain- and the BSA-coated wells. *p<0.05, **p<0.01. […] A SPR chip was functionalized with the laminin α3₂₉₂₈₋₃₁₅₀ recombinant protein (˜1000 RU), and each GF was flowed over the chip at indicated concentrations. Curves represent the specific responses (in RU) to laminin. Experimental curves were fitted with Langmuir binding kinetics.
as §1
SPR analysis was performed as described previously². In brief, measurements were made with a Biacore 3000 SPR system (GE Healthcare). […] VEGF-A165, PDGF-BB, or PlGF-2 was flowed at increasing concentrations in the running buffer at 20 μL/min. The sensor chip was regenerated with 50 mM NaOH for every cycle.

B1: vascular endothelial growth factor (VEGF)-A165 (ligand, human, UniProt P15692-4 27-191, looked up)
chain: APMAEGGGQNHHEVVKFMDVYQRSYCHPIETLVDIFQEYPDEIEYIFKPSCVPLMRCGGCCNDEGLECVPTEESNITMQIMRIKPHQGQHIGEMSFLQHNKCECRPKKDRARQENPCGPCSERRKHLFVQDPQTCKCSCKNTDSRCKARQLELNERTCRCDKPRR
notes: mature; Purchased in mature form, not glycosylated
What is called Kd is a measure of binding affinity in units of concentration. By koff is commonly meant the first-order rate constant of dissociation. For orientation: kon means the second-order rate constant of association. With B1, the Kd in test [1] was 27 nM; in test [2], 1.2 nM; in test [3] it was 5.78 nM; in test [4], 1.47 nM. Besides, the values for the koff in test [3] and in test [4] were 0.00324 s⁻¹ and 0.00663 s⁻¹, respectively. In addition, the kon in test [3] is 561000 M⁻¹ s⁻¹; in test [4] it was 4.52e+06 M⁻¹ s⁻¹.
